From the RNAGym collection of RNA variant scans (doi:10.1073/pnas.2313332121)

B1: TPR t1 (parent)
chain: GACCAAUCUGCCCUCAGAGCUCGAGAACAUCUUCGGAUGCAGAGGAGGCAGGCUUCGGUGGCGCGAUAGCGCCAACGUCCUCAACCUCCAAUGCAUCCCACCACAUGAUGAUGCCUGAAGAGCCUUGGUUUUUUG

Variants of: B1
Assay: polymerase ribozyme fitness, log enrichment relative to wild type (log ratio); higher = more active; in vitro selection for triplet polymerase activity
How it was run: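 One round of in vitro selection, in triplicate, was applied to PCR-built, transcribed mutant libraries of each subunit of a heterodimeric triplet polymerase ribozyme. The steps were annealing with a biotinylated primer, partner subunit and triplets, incubation frozen at −7 °C, gel excision of extended constructs, streptavidin-bead capture and RT-PCR. Fitness is the logarithm, base 2, of genotype enrichment over wild-type enrichment from inverse-variance-weighted replicate averages of Illumina-sequenced inputs and outputs, keeping genotypes with ≥10 input reads and ≥1 read per output.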

| Variant | polymerase ribozyme fitness (log ratio) |
| --- | --- |
| G39A C56A G71C C124A | -5.6 |
| C40A C62U A91U G93C C104U G113A | -2.62 |
| G39U G60C G61A A118U | -1.64 |
| G39C C70U U112G | -2.08 |
| C40A A50U | -1.94 |
| C40A C73U U125G | -1.92 |
| G39U C88U G107U G113A G122A | -6.96 |
| C40G A43U | -2.95 |
| G39A G45C G51C G69U U125G | -2.57 |
| G39U C40A C62U | -2.99 |
| G39U U96A C115A U126G | -6.69 |
| G39C U112A | 0.828 |
| G39U C56G | -1.37 |
| G39U C56U | 0.0586 |
| G39U C56A | -1.06 |
| G39C C115U C124A | -0.672 |
| C40A C49G U55C A95C G120A | -2.38 |
| G39U G42C | -2.2 |
| G39U G47A C86U C101A G113U | -4.62 |
| G39U A43C C49A | -3.34 |
| G39U G58C G71A G110C | -6.06 |
| G39C C76U U126G | -2.72 |
| G39A C53G G57C | 0.135 |
| G39A C70U | -0.985 |

| Variant | polymerase ribozyme fitness (log ratio) |
| --- | --- |
| G39A C85U | -1.3 |
| C40A C101U | -1.61 |
| G39A A43U G63U C86G | -4.39 |
| G39A G71C G93U C104U C123A | -3.19 |
| G39A C70U A118G G122A | -0.719 |
| G39A A118U | 0.354 |
| G39A U78A A108G A111C | -1.88 |
| C40A C70U | -0.716 |
| U38G U133A | -0.846 |
| C40A C56G U87G A95U C101A C124A U133C | -5.07 |
| G39C U112A A121U | 1.84 |
| C40A C94G G120A U129A | -3.13 |
| G39U C94G G110A | -1.31 |
| G39A G45A | -1.29 |
| C40A C56A C97U | -1.12 |
| U38G G71U U92G G93A U112A | -6.86 |
| C40A U129C | -1.74 |
| G39C A91C | -1.16 |
| G39C A91U | -2.41 |
| G39U G117A | -2.1 |
| G39U G71C U116G | -3.1 |
| G39C U126A | -2.89 |
| G39U G60C C62U C97U | -3.98 |
| G39C C73U C99U C102A C124A G135A | -4.92 |

| Variant | polymerase ribozyme fitness (log ratio) |
| --- | --- |
| C40A U87A C88U G135C | -2.71 |
| C40A G60C | -3.13 |
| C40A G60A | -1.03 |
| C40A G52A C72U A91G | -4.17 |
| C40A A50U C89U | -1.95 |
| C40A A41U | -2.43 |
| G39U C88U | -0.766 |
| G39U C88A | -2.37 |
| G39A A74G | -0.641 |
| G39U A41C C94U C124A | 0.616 |
| G39C C56G C72U | -1.49 |
| G39C C73A A74U | -0.844 |
| G39A G48U A50U A84U C85A | -3.82 |
| C40A C56U A119U G122A | -1.84 |
| G39A G63U C82U U133G | -2.41 |
| G39U C64U A84C | -0.386 |
| C40A A41U A50C | -1.94 |
| G39A G47U G48A C70U C101A | -5.46 |
| G39A G60U | 0.0117 |
| G39A G60A | -0.734 |
| G39A G58A A91U | -2.28 |
| G39A G63U G69U | -1.34 |
| U38G G77A U78C U125A | -1.89 |
| C40A G71U G110C C114A | -6.53 |

| Variant | polymerase ribozyme fitness (log ratio) |
| --- | --- |
| C40A A43U G44C G110U C114U | -5.04 |
| G39C U59A C104A | -2.48 |
| C40A G61A | -0.734 |
| C40A G61U | -1.59 |
| G39A A43G G127U | -2.87 |
| C40A C64U C85A C102A U112G C123U | -5.99 |
| G39C C115A | -1.12 |
| C40A A43G C53U G58A | -4.13 |
| C40A G52A G58A C62U A119U U126A | -4 |
| G39A G69A | -3.04 |
| C40A C89G | -2.81 |
| G39U A46G U78A C89U A95U C97U | -2.4 |
| C40A G51A U78C C124A | -3.18 |
| G39A C40U | -1.56 |
| C40A C79G | -3.35 |
| G39A G117A | -1.8 |
| G39A G117U | -2.58 |
| G39A G117C | -4.05 |
| G39A A50U A118U | -0.352 |
| C40A G48A | -2.24 |
| G39A C89G C101U | -1.85 |
| G39A C86A C123A | -1.81 |
| G39U U55A G60A | -0.52 |
| G39C C104U | -1.04 |

| Variant | polymerase ribozyme fitness (log ratio) |
| --- | --- |
| G39U C114U | -2.86 |
| G39U C114G | -3.65 |
| C40A G44A U78C | -2.1 |
| G39U C73U C114U G120A G127C | -3.02 |
| G39U C62U C85A A90G A119U C123G U125G | -1.09 |
| G39A C102A | -2.49 |
| G39C C53G G107C A121U | -4.92 |
| C40A C49A C86G | -3.35 |
| C40A G60A G61A U112A | -3 |
| G39U G58A A105C | -5.05 |
| G39C C62U G63A | -3.77 |
| C40A C70U G113A | -2.79 |
| G39U G69A U78A G120C U133C | -2.17 |
| C40A A91G C99U A111U G122A | -6.79 |
| U38G G127U G135U | -2.73 |
| C40A G48A G117C | -5.6 |
| C40A C72U G77C G110U | -3.75 |
| C40A A43U C89U C102U U106C C123A | -6.44 |
| C40A A41C C115A | -2.44 |
| G39C A43G G48U U54G G93C G113A | -5.27 |
| C40A G42U C56A | -2.35 |
| G39C C79A | -3.06 |
| G39U G45U G48A C73A C79G G113A | -5.88 |
| G39U C89U A118U | -0.539 |

| Variant | polymerase ribozyme fitness (log ratio) |
| --- | --- |
| G39U U54G C56A A83C C89U | -3.7 |
| G39C G48U A111U | -4.49 |
| G39U A41G G44U C56G A105C A111U | -5.8 |
| U38G U112C | 0.772 |
| U38G U54C C56U G61U A111U | -5.38 |
| G39A A43U C86G | -1.99 |
| G39A C56G | -1.24 |
| G39C G69A | -3.44 |
| U38G G113U U125G | -3.75 |
| G39U A91U U126G G128U | -3.6 |
| C40A G61A C80U | -2.91 |
| G39U G61U A121C | 1.22 |
| G39U G51U | -4.93 |
| C40A G71U C115G C123G | -5.05 |
| G39C A41U | -2.47 |
| C40A A41G G42A A43G G122U | -3.41 |
| C40A A66C G77A | -3.74 |
| G39U G58A | 0.844 |
| C40A C80G U109A U133A | -7.59 |
| C40A U112A | -0.958 |
| G39U G57A | -0.803 |
| G39A A43G C73G U129G | -5.71 |
| G39A A74U C82A | -0.903 |
| C40A G63A A84U | -2.88 |

| Variant | polymerase ribozyme fitness (log ratio) |
| --- | --- |
| G39A G69U C79A G127A | -2.91 |
| G39A G42U C49A G52A | -4.68 |
| G39C A90G | 0.876 |
| C40A G48A G61A U92A C94U A105G | -7.09 |
| G39A G61C A118G G122A | -3.03 |
| G39A A46U C64U | -2.95 |
| C40A G61A A105G | -4.93 |
| G39U G60A G61A U87C C101U | -3.02 |
| G39U G44C U59A | -2.12 |
| C40A G63C C123U | -0.868 |
| G39U A43U G52C C73G C94A C97G G110C | -7.55 |
| C40A G63A C79A C86A C104A C114U | -7.08 |
| G39U C101A | -2.22 |
| G39U C49A A100U U106A | -1.51 |
| G39U G63U A121U G135A | 0.925 |
| G39A | -0.485 |
| G39U | -0.799 |
| G39C | -0.776 |
| C40A A41G C70U | -1.7 |
| G39U A119G | 0.375 |
| C40A C94G C97U G113U | -7.66 |
| G39U C40G C64U U106A U109A G120C | -5.69 |
| G39A G61U A100C C123A | -1.14 |
